From the supplement of paper PMC9942255
Values joined by “and” are separate entries in the source; they are usually repeats but may differ in a detail not shown here. Equal entries are not always repeated.

System: Bacillus subtilis DB104 (SP-AmyQ fusion secretion)
Experiment: AmyQ secretion efficiency, weighted average sort bin (1 = best secretion, 10 = worst) (bin number (weighted average, 1-10)); higher = lower secretion efficiency
How it was run: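 The secretion score was taken as the read-frequency-weighted mean bin number, normalised to beads per bin, with low-abundance sequences excluded. Bins came from large-particle flow cytometry sorting of occupied alginate beads (~65 nL, about 0.3 cells each, with fluorescein-starch) into 10 equally populated groups by green/red fluorescence ratio after about 13 h at room temperature and nile red staining. The cells were a B. subtilis DB104 library with mature AmyQ fused to designed signal peptides, integrated at amyE, and each bin's amplicons were Illumina-sequenced.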

Sequence	AmyQ secretion efficiency
MKKVLMAFIICLSLILSVLAAPPSGTKAESV	2.94
MGLGKKLSVAVAASFMSLSISLKRRRKRVQAAEG	7.64
MFNRLFRVCFLAALIMAFTLPNSVYPQKP	7.22
MLKKKWMVGLLAGCLAAGGFSYNDFATEN	5.83
MKRRRRKLLSTLLIGIMLLTFAPSAFAKQD	1.81
MKLAKRVSALTPSTTLAITAKFKEL	7.68
MNKKYGVLIVCIIFTSALFPTFSSVTAAQG	1.02
MKKWMAGLFLAAAVLLCLMVPQQVQGASS	3.15
MKWMCSICCAAVLLAGGAAQTEAV	3.03
MLKKKWMTGGTKRCLAAGGFSYNAFATEN	7.54
MRKKRYGKCRQGSSLTLGSLLPAGYATAKED	8.17
MKKKLAAGLTASAIVGTTLVVTPREAATI	6.83
MKRIRIPMTLALGAALTIAPLSFASGEEN	3.92
MTKLKMLSMLTVMIASLFIFSSQALDVQY	6.18
MKSKGSIMACLILFSFTITTFINTETISMFSN	7.38
MNKLKRLSMLTVMIASVFIFSSHILAAQY	3.91
MKKSKQSGRLFLGLTPAGANAADL	6.97
MRPVFPLILSAVLFLSCFFGARQTEASYSKR	2.56
MKKAFILSAAAAVGLFTFGGVQQFSAKEL	5.1
MKRLFMKASLVLFAVVFVFAVKGAPIKAETH	2.24
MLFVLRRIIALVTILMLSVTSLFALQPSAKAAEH	1.93
MLKRTSFVSSLFISSAVLLSILLPSGQLHAQSA	1.71
MKSKGSIMACLILFSFTITTFINTETISCFSN	7.73
MAIIIAIIAAVIVIAALITFNVRNVSPG	8.03
MKKWMAGLFLAAAVLLCLMVPQQKQGASS	3.94
MKRLLSTLLIGIMLLFFIFFTFAPSAFAKQD	1.97

Sequence	AmyQ secretion efficiency
MKSKWMSRKRRVAVGFSFTQVMVHAGET	6.31
MHRRRKAAGAVCLAVVLIAGCRFNEDQHQAEGENT	4.73
MLCVMMLLFSAIASFPVSAQVKDQ	5.88
MRMLWRSLALCGLALTLAPCAQSAEP	2.34
MKLRKVLTGSVLSLGLLVSASPAFATED	2.67
MKKQIITATTAVVLGSTLFAGAASAQKR	2.23
MMTMLFHSTLIVLLFFSFFGVQPIHAKKQ	2.1
MKKWMITIAMLILAGIALFVFISPSKSHKT	6.65
MRMLWRSLALCGLALTLAPCVQAAEP	1.79
MKWMCSICCAAVLLAGLGAAQAEAV	3.8
MKNMSCKLVVSVTLFFSFLTIGPLAHAKRK	2.49
MKRLTLVCSIVFILFILFYDLKIGTDEASAKTA	4.35
MKKKLAAGLTASAIVGTTLVDEPAEAATI	5.66
MNLRKNSFFILLSSALSLGMLVSAAPVLATSS	1.98
MRKNRILALFVLSLGLLSFMVTPTSAASK	2
MFKKHTISLLIIFLLASAVLAKPIEARKK	2.26
MKRRRRKIWTIILGALLVCCIAVAYTLTKSQAGASSS	5.49
MKSKGSIMSCLILFSFTITTFINTETISAFSN	3.29
MAIIIAIIAAVIVIAALITFNVRNRSPG	7.6
MFKKHTISLLIIFLLASAVLAKPIECHTV	5.04
MKRCKRRRLIVCSLAAILLLIPSVSFAADS	3.97
MPYLKRVLLLLVTGLFMSLAVTATASAQTG	1.16
MFNRLFRVCFLAALIMAFTLPNSSYAQKP	2.08
MFKKLLLATSALTFSLSLVLPLDGHAKAQED	2.98
MKSKWMSGLLLVAVGFSFTQVMVHARRR	7.53
MKLKKRVSMFKKALTMCGGLFVTPAKAVKT	7.21

Sequence	AmyQ secretion efficiency
MKRRFMKASLVLFAVVFVFAVKGAPAKAETH	2.6
MGLGKKLSVAVAASFMSLSISLPGVQLAEG	4.12
MKRLTLVCSIVFILFILFYDLKIGTIPIQDLPVYEESAKTA	5.76
MIFTIVVGFLSVLGLAAVFPLTAQAEKA	2.34
MNKLKRLSMLTVMIASVFIFSSHALAARR	2.05
MKKTIMSFVAVAALSTTAFGAHASPKEI	3.96
MKKKLAAGLTASAIVGTTLVVTPAESATI	3.72
MPIKKKVMMCLAVTLVFGSMRRKTLTNSGGFKE	7.75
MKKAAAVLLSLGLVFKKRRRKKHVAEAKTK	7.39
MKKIWIGMLAAAVLLLTKPKESLADAA	3.56
MKRFLIGAGVAAVILSGWFIADHQTHGQEM	5.37
MKKRKRRNFKRFIAAFLVLALMISLVPADKLAKST	4.89
MKKKQVMGYTTAAAGLGLTALHSAPAAKAAPL	7.28
MKKKQQRLALTAAAGLGLTALHSAPAAKAAPL	5.39
MNLRKILLSSALSLGMLKRKAPVLATSS	7.26
MKLSVKIAGVLTVAAAAMTAKMYATPKGN	5.67
MKKWMAGLFLAAAVLLCLMVPQQIQGASS	4.93 and 4.6 and 5.33
MFKKLRKKKKRLTFSLSLVLPLDGHAKAQEV	6.86
MGMKKKLSLGVASAAGGTWAAFN	8.23
MKRFLIGAGVAAVILSGWFIADHQFHSQEM	5.93
MKKWLIIAVSLAIAIVLFMAFKGEAKAAGM	3.57
MKLAKRVSALTPSTTLAITAKVKEL	6.33
MKRFSTAYLLLGILCSAAVFLIGAPSRALAAEV	2.35
MRKKRVITCVMAASLTLGSLLRKRKKRASAKED	6.48
MNLFLIAPMLLSAASLAFFAMSGSAQAAAY	5.75
MNKPTKLRRKKKRAAGMTAAAAGGAGTIHAQQP	7.88

Sequence	AmyQ secretion efficiency
MRSYIKVLTMCFLGLPTALADNS	3.96
MMKKLFHSTLIVLLFFSFFGVQPVASSASTIHAKKQ	2.41
MKKSRRALLLLLFAFEPSASGKKL	7.28
MKSKGSIMACRRKRRRTITTFINTETISAFSN	6.8
MKQGKFSVKKRKLLMLTLVVAPKEKAEAASS	8.14
MTKKAWFLPLVCVLLISGWLAPAASKSAQTT	4.7
MLKFLKSNFRFLLAAALGISLLASSNFIKASND	3.52
MKLAKRVSALTPSTTLAITAKAAED	5.72
MKLWMRKTLVVLFTIVTFGLVSPPAAEMADKP	2.41
MKKKQVMLALTAAAGLGLTALHSAPANKAAPL	5.6
MVKKWLIQFAVMLSVLSTFTYSASAVGV	3.04 and 1.99
MKKRLIGFLVLVPALIEDGITLIEANKK	5.91
MKVPKTMLLSTAAGLLLSLTATSKSAHYV	6.37
MKQGKFSVFLILLLMLAPKEKAEAASS	2.23
MLKKKWMVGLLAGCLAAGGFSYNEFATEN	6.42
MKKIWIGMLAAAVLLLMVPKVSLRDAA	4.91
MRKSLITLGLASFTILVIGTSSFLIPFTSKTASAETL	1.81
MKLWMRKTLVVLFTIVTFGLVSPPAAHMADKP	2.08
MKKLCVMMLLFSAIASFPVSAQAKDQ	2.86
MKVLLSALLLLLFAFEPSSSGKKL	6.37
MLNGIISFLLVSFVLFFALSTGITGVQAAPA	3.09
MLKKKKTQYQILVGSTLGAFSFSSDASAKHV	5.99
MKKTIMSFVAVAALSTTAFGAHRSAKEI	5.69
MRSYIKVLTMCFLGLILFVPTALFDNS	7.14
MFMLFMNASLVLFAVVFVFAVKGAPAKAETH	5.11
MPYLKRVRKLLVTGLFMSLFAVTATASAQTG	1.73

Sequence	AmyQ secretion efficiency
MKKIMSAFVGMVLLTIFCKKRKRRASAAYD	7.21
MKKSQYGGQTFGLVMGFSQFQPSTVFAADK	6.36
MRPLILSAVLFLSCFFGARQTEASASKR	3.63
MFKFKKNFLFLVGLSAALMSISLFSATASAAST	1.42
MKKLIMALVILGALGTSYISADSS	6.77 and 6.15
MKLAKRVSALTPSTTLAITAKKKEL	7.78
MKRLFMKAKLVLFAVVFVFAVKGAPAKAETH	2.67
MLCVMMLLFSAIASFPVSGQAKDQ	5.05
MKRSISIFITCLLITLLTMGGMIASPASAAGT	3.79 and 2.48 and 2.42
MKIRKIKKKKRKSFGMLISAVPALAAGT	7.53
MKKQIITATTAVVLGSTLFAGATSAQSI	1.92
MKRIRIPMTLALGAALTIAPLLSFASAEEN	4.21
MKNMSCKYQQGVTLFFSFLTIGPLAHAQNS	6.89
MRPVFPLILSAVLFLSCFFGARQTEWSASKR	7.27
MKLWMRKTLVVLFTIVTFGLVSPPAALMVDKP	2.11
MNKKYFVLIVCIIFTSALFPTFSSITAAQG	1.16
MRKKTKNRLISSVLSTVVISSLLFPGAAGASEE	2.7
MKKTIMSFVAVAALSTTAFGAHASFKEI	5.37
MKKRLIAPMLLSAASLAFFAMSGSVQAAAY	4.49
MLKKIALTLCPAIVGSLLAPASAHVS	4.32
MKLAKRVSALTPSTTLAIEEEEAKAKEL	7.01
MKRKKCSICCAAVLLAGGAAQAEAV	6.17
MKIRKILLSSALSFGMLLILTSISAVPALAAGT	2.99
